These results are taken from patent US20110052582A1 (Hoffmann-La Roche, published 2011).

T1: Human CDCP1 (CUB domain containing protein 1) on DU-145 cells (human, UniProt Q9H5V8 30-836)
T1 sequence: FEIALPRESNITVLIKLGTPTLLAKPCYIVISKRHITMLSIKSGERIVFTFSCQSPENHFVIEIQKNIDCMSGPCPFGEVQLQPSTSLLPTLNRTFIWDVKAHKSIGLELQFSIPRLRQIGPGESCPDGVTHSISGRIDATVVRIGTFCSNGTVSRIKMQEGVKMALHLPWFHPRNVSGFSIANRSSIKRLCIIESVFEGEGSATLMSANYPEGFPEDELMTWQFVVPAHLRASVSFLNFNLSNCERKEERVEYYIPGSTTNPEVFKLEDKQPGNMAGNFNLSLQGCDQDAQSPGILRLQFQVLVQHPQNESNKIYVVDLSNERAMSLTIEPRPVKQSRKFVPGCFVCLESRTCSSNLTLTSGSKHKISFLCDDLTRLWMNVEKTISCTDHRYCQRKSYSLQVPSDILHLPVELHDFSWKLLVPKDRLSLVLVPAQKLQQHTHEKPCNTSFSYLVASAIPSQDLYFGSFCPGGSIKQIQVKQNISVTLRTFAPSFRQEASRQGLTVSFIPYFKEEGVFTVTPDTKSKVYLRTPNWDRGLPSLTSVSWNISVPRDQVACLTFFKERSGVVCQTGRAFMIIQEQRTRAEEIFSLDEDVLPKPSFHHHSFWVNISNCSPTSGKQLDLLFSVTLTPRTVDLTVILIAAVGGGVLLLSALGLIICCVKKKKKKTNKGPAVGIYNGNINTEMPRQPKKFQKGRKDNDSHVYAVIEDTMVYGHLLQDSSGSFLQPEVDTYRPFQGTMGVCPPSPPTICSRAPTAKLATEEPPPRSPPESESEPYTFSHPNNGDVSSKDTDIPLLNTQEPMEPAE

T2: Soluble CDCP1 extracellular domain (CDCP1-ECD) (SEQ ID NO:30) fused to Streptavidin Binding Protein (SBP) (human, UniProt Q9H5V8 30-663)
T2 construct: also called SBP-CDCP1-ECD
T2 sequence: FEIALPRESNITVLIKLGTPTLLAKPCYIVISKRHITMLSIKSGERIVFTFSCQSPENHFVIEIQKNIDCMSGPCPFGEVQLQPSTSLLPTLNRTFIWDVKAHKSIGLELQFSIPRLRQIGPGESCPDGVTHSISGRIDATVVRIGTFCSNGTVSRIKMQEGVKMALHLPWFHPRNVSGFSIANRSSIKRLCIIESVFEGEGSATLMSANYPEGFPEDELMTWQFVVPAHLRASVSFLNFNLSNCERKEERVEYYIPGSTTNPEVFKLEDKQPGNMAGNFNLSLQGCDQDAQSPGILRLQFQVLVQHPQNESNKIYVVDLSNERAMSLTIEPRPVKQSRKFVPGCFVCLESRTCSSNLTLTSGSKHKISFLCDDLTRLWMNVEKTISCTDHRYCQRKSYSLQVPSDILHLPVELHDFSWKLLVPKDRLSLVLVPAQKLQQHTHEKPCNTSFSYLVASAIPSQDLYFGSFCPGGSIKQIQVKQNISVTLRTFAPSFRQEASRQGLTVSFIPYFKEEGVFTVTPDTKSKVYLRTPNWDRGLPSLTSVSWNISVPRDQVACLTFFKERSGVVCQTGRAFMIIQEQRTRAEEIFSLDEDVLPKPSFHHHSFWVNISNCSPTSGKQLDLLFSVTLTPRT

T3: extracellular-domain-(ECD)-comprising fragment of human CDCP1 of SEQ ID NO: 30 (human, UniProt Q9H5V8 30-663)
T3 construct: also called CDCP1 ECD; CDCP1-ECD
T3 sequence: T2 sequence

B1: Humanized CUB4 Antibody No. 69 (antibody, IgG1, V domains shown)
VH: EVQLVESGGGLVQPGGSLRLSCAASGFTFNSYGMSWVRQAPGKGLEWVATISSGGSYKYYVDSVKGRFTISRDNAKNSLYLQMNSLRAEDTAVYYCARHPDYDGVWFAYWGQGTLVTVSS
VL: EIVLTQSPATLSLSPGERATMSCSVSSSVFYLHWYQQKPGQAPRLWIYDTSKLASGIPARFSGSGSGTDFTLTISSLEPEDFAVYYCQQWNSNPPTFGGGTKVEIK
notes: Human constant region; also called Antibody 69; hHC4-H / hLC-L2
B2: Humanized CUB4 Antibody No. 80 (antibody, IgG1, V domains shown)
VH: B1 VH
VL: B1 VL with S24G, V25A, Q41L, A59D, S76R
notes: Only variable domains are tied to the antibody; Human constant region, preferably IgG1; also called hHC4-H / hLC-M
B3: Humanized CUB4 Antibody No. 135 (antibody, IgG1, V domains shown)
VH: B1 VH
VL: DIQMTQSPSSLSASVGDRVTITCSVSSSVFYVHWYQQKPGKAPKLLIYDTSKLASGVPSRFSGSGSGTDFTFTISSLQPEDIATYYCQQWNSNPPTFGGGTKVEIK
notes: Human constant region, preferably IgG1; also called Antibody 135; hHC4-H / hLC-e
B4: Humanized CUB4 Antibody No. 47 (antibody, human IgG1, V domains shown)
VH: B1 VH
VL: B1 VL with M21L, S24R, V25A
notes: Only variable domains are tied to the antibody; also called humanized anti-CDCP1 antibody 47; hHC4-H / hLC-K
B5: chimeric (chHC4) CUB4 antibody comprising human constant region and mouse VH and VL (antibody, human IgG1, V domains shown)
VH: EVQLVESGGDLVKPGGSLKLSCAASGFTFNSYGMSWVRQTPDKRLEWVATISSGGSYTYYPDSVKGRFTISRDNAKNTLYLQMSSLKSEDTAMYYCARHPDYDGVWFAYWGQGTLVTVSA
VL: QIVLTQSPAIMSASPGEKVTMTCSVSSSVFYVHWYQQKSGTSPKRWIYDTSKLASGVPARFSGSGSGTSYSLTISSMEAEDAATYYCQQWNSNPPTFGGGTKLEIK
B6: hHC4-K / hLC4-d (antibody, V domains shown)
VH: B1 VH with Q13K, A49S, T50S, K58I, V61A
VL: B1 VL with L4M, L13V, M21L, L32V, W46L, D69E, F70Y, E78Q, P79S
B7: hHC4-b / hLC4-c (antibody, V domains shown)
VH: B1 VH with Q13K, G33S, S35N, A49S, T50S, K58I, V61A
VL: B1 VL with L4M, L13V, M21L, L32V, W46L, D69E, E78Q, P79S
B8: hHC4-b / hLC4-d (antibody, V domains shown)
VH: B1 VH with Q13K, G33S, S35N, A49S, T50S, K58I, V61A
VL: B1 VL with L4M, L13V, M21L, L32V, W46L, D69E, F70Y, E78Q, P79S
B9: Humanized CUB4 Antibody No. 91 (antibody, IgG1, V domains shown)
VH: B1 VH
VL: B1 VL with M21L, L32V, W46L
notes: Only variable domains are tied to the antibody; Human constant region, preferably IgG1; also called hHC4-H / hLC-a
B10: Humanized CUB4 Antibody No. 102 (antibody, IgG1, V domains shown)
VH: B1 VH
VL: B1 VL with M21L, L32V, W46L, F70Y
notes: Only variable domains are tied to the antibody; Human constant region, preferably IgG1; also called hHC4-H / hLC-b
B11: chHC4 / hLC4-I (antibody, V domains shown)
VH: B5 VH
VL: B1 VL with L4M, M21L, S24R, V25A, H33S, E78Q
B12: chHC4 / hLC4-f (antibody, V domains shown)
VH: B5 VH
VL: B3 VL with F70Y

Residue numbers refer to the chain shown, from its start.

The target of the first assay is T1, Human CDCP1 (CUB domain containing …). As to the kind of experiment: cell-based or functional assay.
For the molecule B1, the “Percent (%) stimulation of CDCP1 phosphorylation in DU-145 cells (Western blot, densitometry)” value (“Percent (%) stimulation” for short) is 112%.

For the molecule B2, the “Percent (%) stimulation” value was 133%.

For B3, the “Percent (%) stimulation” value is 72%.

On to B4, for which the “Percent (%) stimulation” value amounted to 96%.

For B5, the “Percent (%) stimulation” value was 100%.

For a further assay, the target named is T2, Soluble CDCP1 extracellular domain …. The assay can be described thus: ELISA on captured SBP-CDCP1-ECD, ratio relative to chimeric CUB4 (chHC4). The method, boiled down: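 Streptavidin plates coated overnight at 2–8° C with SBP-CDCP1-ECD HEK293 supernatant (1:15–1:40). Antibodies, undiluted or 12-step dilution, bound 90 min at room temperature; HRP anti-human IgG 1 h, ABTS read at 405/492 nm, signal expressed relative to chimeric chHC4 reference.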
Background: In an ELISA, binding on a coated surface is turned into a signal by an enzyme label.
B1: the relative binding ratio worked out at 0.69.

For B6, the binding result is listed as “no binding”.

B7: the binding result is reported as “no binding”.

For the molecule B8, the binding result is listed as “no binding”.

Regarding B2, the relative binding ratio is 0.56.

Turning to B9, the relative binding ratio worked out at 0.51.

B3: the relative binding ratio was determined as 0.47.

In the case of B10, the relative binding ratio was found to be 0.53.

For B4, the relative binding ratio amounted to 0.46.

In the case of B11, the binding result was “no binding”.

With B12, the relative binding ratio worked out at 0.24.

The target in a further assay is T3, extracellular-domain-(ECD)-comprising …. The assay can be described thus: SPR (Biacore T100), antibody captured, CDCP1 ECD as analyte, 25 C, Langmuir 1:1. On the procedure: After conjugation, different anti-CDCP1 antibodies were injected at 25° C. at a flow rate of 5 μL/min, followed by a dilution series (0 nM to 1000 nM) of CDCP1 ECD at 30 μL/min. As running buffer for the binding experiment PBS/0.1% BSA was used. The chip was then regenerated with a 60s pulse of 10 mM glycine-HCl, pH 2.0 solution.
Calculation of thermodynamic parameters (KD, binding constant) and kinetic parameters (kₒₙ rate, koff rate) were calculated using a Langmuir 1:1 binding model.
(Surface plasmon resonance follows binding to a sensor surface in real time, without labels.)
As usually defined, the Kd is a measure of binding affinity in units of concentration. Broadly, the koff is the rate constant with which the complex falls apart. High values mean fast dissociation, low ones slow dissociation. As usually defined, the kon is a measure of how fast the partners come together. Low readings indicate slow association, high ones fast association. As to B1, the Kd was determined as 2.55 nM, the koff amounted to 0.00052 s⁻¹, the kon is 210000 M⁻¹ s⁻¹ and the t½ diss. worked out at 22.1 min.

B2: the Kd came to 3.53 nM, the koff worked out at 0.00088 s⁻¹, the kon was 250000 M⁻¹ s⁻¹ and the t½ diss. was 13.1 min.

B9: the Kd is 5.6 nM, the koff stood at 0.001 s⁻¹, the kon came out at 180000 M⁻¹ s⁻¹ and the t½ diss. came to 11.2 min.

B3 had a Kd of 8.3 nM, a koff of 0.0011 s⁻¹, a kon of 140000 M⁻¹ s⁻¹ and a t½ diss. of 10.3 min.

On to B10, for which the Kd stood at 5.4 nM, the koff was 0.0011 s⁻¹, the on-rate constant (kon) was determined as 190000 M⁻¹ s⁻¹ and the t½ diss. was 11 min.

With B4, the dissociation constant Kd stood at 3.77 nM, the koff worked out at 0.00075 s⁻¹, the kon was determined as 200000 M⁻¹ s⁻¹ and the t½ diss. amounted to 15.4 min.
